# Results from publication PMC10397247.
# T1: 4H349-bH
# T1 chain: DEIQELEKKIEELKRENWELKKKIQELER
# T2: 4H3364-bH
# T2 chain: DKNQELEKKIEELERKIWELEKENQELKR
# T3: 4H56-bH
# T3 chain: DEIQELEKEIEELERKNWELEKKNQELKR
# T4: 4H796-bH
# T4 chain: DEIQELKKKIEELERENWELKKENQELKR
# T5: 4H3381-bH
# T5 chain: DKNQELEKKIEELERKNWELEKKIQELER
# T6: 4H730-bH
# T6 chain: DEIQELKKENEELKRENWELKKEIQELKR
# T7: O16-bN
# T7 chain: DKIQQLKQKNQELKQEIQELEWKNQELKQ
# T8: 4H949-bH
# T8 chain: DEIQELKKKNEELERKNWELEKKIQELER
# T9: 4H932-bH
# T9 chain: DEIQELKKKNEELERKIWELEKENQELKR
# T10: O5-bP
# T10 chain: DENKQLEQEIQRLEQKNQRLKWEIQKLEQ
# T11: 4H953-bA
# T11 chain: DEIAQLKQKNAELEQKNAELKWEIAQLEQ
# T12: 4H717-bA
# T12 chain: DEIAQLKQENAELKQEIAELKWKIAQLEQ
# T13: 4H883-bA
# T13 chain: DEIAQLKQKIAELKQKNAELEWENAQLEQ
# T14: 4H908-bA
# T14 chain: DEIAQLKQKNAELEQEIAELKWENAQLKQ
# T15: 4H797-bA
# T15 chain: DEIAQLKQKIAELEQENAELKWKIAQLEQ
# T16: 4H4001-bA
# T16 chain: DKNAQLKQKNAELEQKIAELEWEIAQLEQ
# T17: 4H454-bA
# T17 chain: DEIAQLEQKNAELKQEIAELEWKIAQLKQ
# T18: 4H3427-bA
# T18 chain: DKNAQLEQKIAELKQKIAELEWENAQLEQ
# T19: 4H3782-bA
# T19 chain: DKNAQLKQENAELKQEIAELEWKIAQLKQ
# T20: 4H967-bA
# T20 chain: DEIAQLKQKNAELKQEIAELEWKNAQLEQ
# T21: 4H568-bA
# T21 chain: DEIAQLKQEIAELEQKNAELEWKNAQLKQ
# T22: 4H3354-bA
# T22 chain: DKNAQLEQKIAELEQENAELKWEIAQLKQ
# T23: P9A-bA
# T23 chain: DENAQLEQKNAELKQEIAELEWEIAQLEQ
# T24: 4H338-bA
# T24 chain: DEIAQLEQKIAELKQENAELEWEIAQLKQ
# T25: 4H918-bA
# T25 chain: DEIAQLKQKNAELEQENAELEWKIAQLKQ
# T26: 4H3855-bA
# T26 chain: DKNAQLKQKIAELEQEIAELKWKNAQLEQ
# T27: 4H607-bA
# T27 chain: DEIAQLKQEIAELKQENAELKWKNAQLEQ
# T28: 4H754-bA
# T28 chain: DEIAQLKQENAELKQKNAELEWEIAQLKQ
# T29: 4H72-bA
# T29 chain: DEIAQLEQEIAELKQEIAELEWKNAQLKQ
# T30: 4H687-bA
# T30 chain: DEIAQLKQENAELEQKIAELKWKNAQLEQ
# T31: 4H906-bH
# T31 chain: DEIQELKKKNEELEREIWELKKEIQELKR
# T32: 4H584-bH
# T32 chain: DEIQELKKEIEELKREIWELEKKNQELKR
# T33: 4H3817-bH
# T33 chain: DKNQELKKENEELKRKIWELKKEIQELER
# T34: 4H850-bH
# T34 chain: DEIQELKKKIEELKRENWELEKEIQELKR
# T35: 4H3631-bH
# T35 chain: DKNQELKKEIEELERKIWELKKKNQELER
# T36: 4H953-bH
# T36 chain: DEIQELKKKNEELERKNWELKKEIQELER
# T37: 4H3974-bH
# T37 chain: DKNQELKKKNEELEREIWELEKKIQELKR
# T38: 4H619-bH
# T38 chain: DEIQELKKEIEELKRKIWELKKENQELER
# T39: 4H570-bH
# T39 chain: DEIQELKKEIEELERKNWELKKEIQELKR
# T40: 4H3638-bH
# T40 chain: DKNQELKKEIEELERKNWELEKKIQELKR
# T41: 4H3414-bH
# T41 chain: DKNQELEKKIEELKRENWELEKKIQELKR
# T42: 4H683-bA
# T42 chain: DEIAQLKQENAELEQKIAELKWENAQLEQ
# T43: 4H883-bH
# T43 chain: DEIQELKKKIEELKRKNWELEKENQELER
# T44: 4H3606-bH
# T44 chain: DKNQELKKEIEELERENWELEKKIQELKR
# T45: 4H3782-bH
# T45 chain: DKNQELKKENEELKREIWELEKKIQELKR
# T46: 4H607-bH
# T46 chain: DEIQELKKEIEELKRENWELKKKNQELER
# T47: 4H72-bH
# T47 chain: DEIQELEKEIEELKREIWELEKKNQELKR
# T48: 4H370-bH
# T48 chain: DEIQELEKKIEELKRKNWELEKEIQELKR
# T49: 4H3843-bH
# T49 chain: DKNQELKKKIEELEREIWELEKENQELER
# T50: 4H687-bH
# T50 chain: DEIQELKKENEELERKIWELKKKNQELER
# T51: 4H4001-bH
# T51 chain: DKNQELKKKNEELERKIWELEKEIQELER
# T52: 4H568-bH
# T52 chain: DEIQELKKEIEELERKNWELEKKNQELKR
# T53: 4H3189-bH
# T53 chain: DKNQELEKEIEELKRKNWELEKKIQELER
# T54: 4H918-bH
# T54 chain: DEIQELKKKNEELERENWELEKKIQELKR
# T55: 4H331-bH
# T55 chain: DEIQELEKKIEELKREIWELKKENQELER
# T56: 4H797-bH
# T56 chain: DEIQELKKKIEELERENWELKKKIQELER
# T57: 4H462-bH
# T57 chain: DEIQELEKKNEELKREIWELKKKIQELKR
# Legend:
# Test in all cases: two-hybrid library CCNG1;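 also: natural log of median RNA to DNA barcode read ratio; higher means stronger binding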
# 4H349-bH = target: T1, 4H349-bH
# 4H3364-bH = target: T2, 4H3364-bH
# 4H56-bH = target: T3, 4H56-bH
# 4H796-bH = target: T4, 4H796-bH
# 4H3381-bH = target: T5, 4H3381-bH
# 4H730-bH = target: T6, 4H730-bH
# O16-bN = target: T7, O16-bN
# 4H949-bH = target: T8, 4H949-bH
# 4H932-bH = target: T9, 4H932-bH
# O5-bP = target: T10, O5-bP
# 4H953-bA = target: T11, 4H953-bA
# 4H717-bA = target: T12, 4H717-bA
# 4H883-bA = target: T13, 4H883-bA
# 4H908-bA = target: T14, 4H908-bA
# 4H797-bA = target: T15, 4H797-bA
# 4H4001-bA = target: T16, 4H4001-bA
# 4H454-bA = target: T17, 4H454-bA
# 4H3427-bA = target: T18, 4H3427-bA
# 4H3782-bA = target: T19, 4H3782-bA
# 4H967-bA = target: T20, 4H967-bA
# 4H568-bA = target: T21, 4H568-bA
# 4H3354-bA = target: T22, 4H3354-bA
# P9A-bA = target: T23, P9A-bA
# 4H338-bA = target: T24, 4H338-bA
# 4H918-bA = target: T25, 4H918-bA
# 4H3855-bA = target: T26, 4H3855-bA
# 4H607-bA = target: T27, 4H607-bA
# 4H754-bA = target: T28, 4H754-bA
# 4H72-bA = target: T29, 4H72-bA
# 4H687-bA = target: T30, 4H687-bA
# 4H906-bH = target: T31, 4H906-bH
# 4H584-bH = target: T32, 4H584-bH
# 4H3817-bH = target: T33, 4H3817-bH
# 4H850-bH = target: T34, 4H850-bH
# 4H3631-bH = target: T35, 4H3631-bH
# 4H953-bH = target: T36, 4H953-bH
# 4H3974-bH = target: T37, 4H3974-bH
# 4H619-bH = target: T38, 4H619-bH
# 4H570-bH = target: T39, 4H570-bH
# 4H3638-bH = target: T40, 4H3638-bH
# 4H3414-bH = target: T41, 4H3414-bH
# 4H683-bA = target: T42, 4H683-bA
# 4H883-bH = target: T43, 4H883-bH
# 4H3606-bH = target: T44, 4H3606-bH
# 4H3782-bH = target: T45, 4H3782-bH
# 4H607-bH = target: T46, 4H607-bH
# 4H72-bH = target: T47, 4H72-bH
# 4H370-bH = target: T48, 4H370-bH
# 4H3843-bH = target: T49, 4H3843-bH
# 4H687-bH = target: T50, 4H687-bH
# 4H4001-bH = target: T51, 4H4001-bH
# 4H568-bH = target: T52, 4H568-bH
# 4H3189-bH = target: T53, 4H3189-bH
# 4H918-bH = target: T54, 4H918-bH
# 4H331-bH = target: T55, 4H331-bH
# 4H797-bH = target: T56, 4H797-bH
# 4H462-bH = target: T57, 4H462-bH
binder,measurement,setting,value
DKNQELEKKIEELERKIWELEKENQELKR [4H3364-bH],interaction score,4H349-bH,-0.118
same,interaction score,4H3364-bH,1.55
same,interaction score,4H56-bH,-0.464
same,interaction score,4H796-bH,-0.523
same,interaction score,4H3381-bH,0.55
same,interaction score,4H730-bH,-0.811
same,interaction score,O16-bN,0.622
same,interaction score,4H949-bH,0.153
same,interaction score,4H932-bH,-0.252
same,interaction score,O5-bP,0.546
DKNAQLEQKIAELEQENAELKWEIAQLKQ [4H3354-bA],interaction score,4H953-bA,-0.675
same,interaction score,4H717-bA,-0.712
same,interaction score,4H883-bA,-0.0506
same,interaction score,4H908-bA,-1.17
same,interaction score,4H797-bA,-1.14
same,interaction score,4H4001-bA,-0.362
same,interaction score,4H454-bA,-1.24
same,interaction score,4H3427-bA,-0.0236
same,interaction score,4H3782-bA,-0.851
same,interaction score,4H967-bA,-0.407
same,interaction score,4H568-bA,-1.07
same,interaction score,4H3354-bA,1.66
same,interaction score,P9A-bA,-1.59
same,interaction score,4H338-bA,0.149
same,interaction score,4H918-bA,-0.0912
same,interaction score,4H3855-bA,-0.492
same,interaction score,4H607-bA,-0.0475
same,interaction score,4H754-bA,-0.511
same,interaction score,4H72-bA,-0.822
same,interaction score,4H687-bA,0.42
DKNQELKKEIEELERKIWELKKKNQELER [4H3631-bH],interaction score,4H906-bH,-1.74
same,interaction score,4H584-bH,-0.0526
same,interaction score,4H3817-bH,0.637
same,interaction score,4H850-bH,-1.94
same,interaction score,4H3631-bH,1.13
same,interaction score,4H953-bH,0.206
same,interaction score,4H3974-bH,0.292
same,interaction score,4H619-bH,0.647
same,interaction score,4H570-bH,-1.5
same,interaction score,4H3638-bH,0.578
DKNQELEKKIEELKRENWELEKKIQELKR [4H3414-bH],interaction score,4H906-bH,-0.25
same,interaction score,4H584-bH,-0.695
same,interaction score,4H3414-bH,0.938
same,interaction score,4H3817-bH,0.48
same,interaction score,4H850-bH,0.00973
same,interaction score,4H3631-bH,0.689
same,interaction score,4H3974-bH,0.33
same,interaction score,4H619-bH,0.721
same,interaction score,4H570-bH,0.846
same,interaction score,4H3638-bH,-1.45
same,interaction score,4H683-bA,0.0371
DKNQELEKEIEELKRKNWELEKKIQELER [4H3189-bH],interaction score,4H883-bH,-0.365
same,interaction score,4H3606-bH,-0.801
same,interaction score,4H3782-bH,-0.496
same,interaction score,4H953-bH,0.375
same,interaction score,4H607-bH,-2.19
same,interaction score,4H72-bH,-0.107
same,interaction score,4H370-bH,-0.165
same,interaction score,4H3843-bH,-0.157
same,interaction score,4H687-bH,-0.776
same,interaction score,4H4001-bH,-0.0803
same,interaction score,4H568-bH,-0.408
same,interaction score,4H3189-bH,0.907
same,interaction score,4H918-bH,-0.173
same,interaction score,4H331-bH,-0.227
same,interaction score,4H797-bH,-0.148
same,interaction score,4H462-bH,-0.167
